According to patent US20060160117:

What was measured:
MTase(R124) = target: T1, MTase(R124) (UniProt P10484)
T1 sequence 1: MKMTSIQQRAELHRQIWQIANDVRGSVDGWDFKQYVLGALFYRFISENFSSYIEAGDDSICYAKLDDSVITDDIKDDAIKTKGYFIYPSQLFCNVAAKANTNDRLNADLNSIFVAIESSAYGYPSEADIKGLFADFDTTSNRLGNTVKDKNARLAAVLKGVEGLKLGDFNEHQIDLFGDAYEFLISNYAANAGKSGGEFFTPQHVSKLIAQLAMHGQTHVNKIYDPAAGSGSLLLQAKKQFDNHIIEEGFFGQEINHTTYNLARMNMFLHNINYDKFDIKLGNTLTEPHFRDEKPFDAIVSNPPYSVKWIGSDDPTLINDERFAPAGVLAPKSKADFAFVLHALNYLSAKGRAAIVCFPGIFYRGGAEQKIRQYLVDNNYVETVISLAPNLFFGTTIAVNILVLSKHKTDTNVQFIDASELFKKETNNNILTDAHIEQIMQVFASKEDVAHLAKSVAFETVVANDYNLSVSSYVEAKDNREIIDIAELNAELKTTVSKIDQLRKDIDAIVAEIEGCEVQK
T1 sequence 2: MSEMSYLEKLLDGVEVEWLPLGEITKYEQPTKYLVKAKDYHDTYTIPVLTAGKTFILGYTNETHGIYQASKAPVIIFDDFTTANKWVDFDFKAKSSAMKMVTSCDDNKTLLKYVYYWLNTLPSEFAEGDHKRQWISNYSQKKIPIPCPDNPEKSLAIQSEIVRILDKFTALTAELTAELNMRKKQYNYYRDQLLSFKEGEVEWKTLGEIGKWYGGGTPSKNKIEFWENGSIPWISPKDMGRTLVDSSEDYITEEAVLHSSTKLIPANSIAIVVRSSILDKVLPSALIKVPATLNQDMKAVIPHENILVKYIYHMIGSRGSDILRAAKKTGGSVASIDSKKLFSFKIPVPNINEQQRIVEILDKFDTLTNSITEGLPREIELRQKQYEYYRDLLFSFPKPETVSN

MTase(R124), P10484 = target: T2, MTase(R124), P10484
T2 chain 1: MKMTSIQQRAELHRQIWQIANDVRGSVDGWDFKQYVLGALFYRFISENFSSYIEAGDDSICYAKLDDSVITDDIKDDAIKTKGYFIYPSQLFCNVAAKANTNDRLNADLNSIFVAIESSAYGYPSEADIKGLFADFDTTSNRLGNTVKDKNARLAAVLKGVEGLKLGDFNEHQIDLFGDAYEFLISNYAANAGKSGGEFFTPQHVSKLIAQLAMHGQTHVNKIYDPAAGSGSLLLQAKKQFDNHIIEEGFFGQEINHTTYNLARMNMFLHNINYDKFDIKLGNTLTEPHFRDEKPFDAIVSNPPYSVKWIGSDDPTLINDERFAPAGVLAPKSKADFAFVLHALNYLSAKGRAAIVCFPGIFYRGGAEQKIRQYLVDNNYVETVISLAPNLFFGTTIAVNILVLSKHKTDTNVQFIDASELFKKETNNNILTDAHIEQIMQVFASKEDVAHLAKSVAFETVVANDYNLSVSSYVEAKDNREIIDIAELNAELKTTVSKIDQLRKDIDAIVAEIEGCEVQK
T2 chain 2: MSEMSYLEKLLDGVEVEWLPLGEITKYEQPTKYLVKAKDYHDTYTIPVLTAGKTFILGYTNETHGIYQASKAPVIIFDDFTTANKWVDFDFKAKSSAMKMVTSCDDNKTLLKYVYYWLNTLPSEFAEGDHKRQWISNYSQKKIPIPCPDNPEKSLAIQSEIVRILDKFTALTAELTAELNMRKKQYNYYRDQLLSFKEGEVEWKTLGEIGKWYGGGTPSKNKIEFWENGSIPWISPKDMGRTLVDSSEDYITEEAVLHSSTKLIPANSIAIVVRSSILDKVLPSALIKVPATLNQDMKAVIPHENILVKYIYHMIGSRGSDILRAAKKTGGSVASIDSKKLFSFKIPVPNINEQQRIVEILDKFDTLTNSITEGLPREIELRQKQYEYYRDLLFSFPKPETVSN

Molecule | DNA cleavage by the hybrid endonuclease (MTase(R124)) | cleavage of pCFD30 plasmid DNA (agarose gel) (MTase(R124), P10484)
HsdR(prrI) | this hybrid enzyme can only cleave DNA in the presence of extremely high concentrations of HsdR(prrI) | –
HsdR(R124) (protein) MTHQTHTIAESNNFIVLDKYIKAEPTGDSYQSESDLERELIQDLRNQGYEFISVKSQSAMLANVREQLQNLNGVVFNDSEWRRFTEQYLDNPSDGILDKTRKIHIDYICDFIFDDERLENIYLIDKKNLMRNKVQIIQQFEQAGSHANRYDVTILVNGLPLVQIELKKRGVAIREAFNQIHRYSKESFNSENSLFKYLQLFVISNGTDTRYFANTTKRDKNSFDFTMNWAKSDNTLIKDLKDFTATCFQKHTLLNVLVNYSVFDSSQTLLVMRPYQIAATERILWKIKSSFTAKNWSKPESGGYIWHTTGSGKTLTSFKAARLATELDFIDKVFFVVDRKDLDYQTMKEYQRFSPDSVNGSENTAGLKRNLDKDDNKIIVTTIQKLNNLMKAESDLPVYNQQVVFIFDECHRSQFGEAQKNLKKKFKRYYQFGFTGTPIFPENALGSETTASVFGRELHSYVITDAIRDEKVLKFKVDYNDVRPQFKSLETETDEKKLSAAENQQAFLHPMRIQEITQYILNNFRQKTHRTFPGSKGFNAMLAVSSVDAAKAYYATFKRLQEEAANKSATYKPLRIATIFSFAANEEQNAIGEISDETFDTSAMDSSAKEFLDAAIREYNSHFKTNFSTDSNGFQNYYRDLAQRVKNQDIDLLIVVGMFLTGFDAPTLNTLFVDKNLRYHGLMQAFSRTNRIYDATKTFGNIVTFRDLERSTIDAITLFGDKNTKNVVLEKSYTEYMEGFTDAATGEAKRGFMTVVSELEQRFPDPTSIESEKEKKDFVKLFGEYLRAENILQNYDEFATLKALQQIDLSDPVAVEKFKAEHYVDDEKFAELQTIRLPADRKIQDYRSAYNDIRDWQRREKEAEKKEKSTTDWDDVVFEVDLLKSQEINLDYILGLIFEHNRQNKGKGEMIEEVKRLIRSSLGNRAKEGLVVDFIQQTNLDDLPDKASIIDAFFTFAQREQQREAEALIKEENLNEDAAKRYIRTSLKREYATENGTELNETLPKLSPLNPQYKTKKQAVFQKIVSFIEKFKGVGGKI | – | The R2-complex was found to cleave the plasmid DNA, as expected. No cleavage was observed for the R1-complex
